B1: heterodimeric anti-Trop-2/anti-CD3-scFv bispecific antibody (bispecific antibody)
heavy: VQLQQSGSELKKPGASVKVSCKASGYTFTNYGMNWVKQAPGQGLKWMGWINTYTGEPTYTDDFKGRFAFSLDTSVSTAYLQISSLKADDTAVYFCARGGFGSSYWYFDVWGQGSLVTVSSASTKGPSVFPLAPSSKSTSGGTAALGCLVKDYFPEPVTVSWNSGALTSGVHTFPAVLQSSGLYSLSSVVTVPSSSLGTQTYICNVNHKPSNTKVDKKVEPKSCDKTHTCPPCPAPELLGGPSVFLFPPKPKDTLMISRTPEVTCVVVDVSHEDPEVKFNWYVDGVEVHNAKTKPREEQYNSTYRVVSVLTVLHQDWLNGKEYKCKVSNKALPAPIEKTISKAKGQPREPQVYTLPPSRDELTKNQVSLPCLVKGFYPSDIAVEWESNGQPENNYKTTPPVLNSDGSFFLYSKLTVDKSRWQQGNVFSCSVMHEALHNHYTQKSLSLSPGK
light: DIQLTQSPSSLSASVGDRVSITCKASQDVSIAVAWYQQKPGKAPKLLIYSASYRYTGVPDRFSGSGSGTDFTLTISSLQPEDFAVYYCQQHYITPLTFGAGTKVEIKRTVAAPSVFIFPPSDEQLKSGTASVVCLLNNFYPREAKVQWKVDNALQSGNSQESVTEQDSKDSTYSLSSTLTLSKADYEKHKVYACEVTHQGLSSPVTKSFNRGEC
scFv: not shown
B2: Anti-Trop-2 mAb (antibody, V domains shown)
VH: VQLQQSGSELKKPGASVKVSCKASGYTFTNYGMNWVKQAPGQGLKWMGWINTYTGEPTYTDDFKGRFAFSLDTSVSTAYLQISSLKADDTAVYFCARGGFGSSYWYFDVWGQGSLVTVSS
VL: DIQLTQSPSSLSASVGDRVSITCKASQDVSIAVAWYQQKPGKAPKLLIYSASYRYTGVPDRFSGSGSGTDFTLTISSLQPEDFAVYYCQQHYITPLTFGAGTKV

Biological target: T1, recombinant human Trop-2 (Sino Biological, Cat. No: 10428-H08H) (human, UniProt P09758 27-274)
T1 chain: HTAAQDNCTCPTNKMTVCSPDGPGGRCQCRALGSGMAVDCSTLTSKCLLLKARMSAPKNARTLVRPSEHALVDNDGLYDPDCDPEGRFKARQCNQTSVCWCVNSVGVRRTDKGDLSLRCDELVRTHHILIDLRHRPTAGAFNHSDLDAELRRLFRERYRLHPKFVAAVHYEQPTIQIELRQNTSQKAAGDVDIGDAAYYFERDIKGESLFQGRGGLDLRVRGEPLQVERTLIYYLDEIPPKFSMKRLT
Experiment: ELISA

| Binder | EC50 [nM] |
| --- | --- |
| B1 | 0.28 |
| B2 | 0.081 |

Reference: patent US20190284299A1 (published 2019)
